In patent publication US20250388623A1, “PEPTIDE INHIBITOR AND USE THEREOF” (CHENGDU BRILLIANT INSPIRATION BIOTHERAPEUTICS CO., LTD, priority 2022, published 2025):

Experiments:
[1] = target: T1, binding of TSP-1 protein to CD36, a TSP-1 receptor protein (Homo sapiens, UniProt P07996); assay: ELISA: blocking of CD36 binding to TSP-1 protein; settings: 100 μM polypeptide, 0.25 μg/mL Fc-tagged CD36, blocking of CD36 binding to TSP-1; for inhibition at 100 µM: 3 h, read-out: Blocking rate (Mean, %)
T1 construct: purchased novoprotein (TSP-1); R&D Systems (Fc-tagged CD36) CU45 (TSP-1); 1955-CD-050 (CD36-Fc)
Experimental: ELISA assay was performed to detect the ability of the polypeptides to block the binding of TSP-1 protein to CD36, a TSP-1 receptor protein. TSP-1 protein (novoprotein, Catalog No. CU45) was diluted to 2 μg/mL using 100 mM carbonate buffer and added to sample wells (100 μL/well) of a 96-well ELISA plate (Thermo, Catalog No. 437111), and incubated overnight at 4° C.; after washing the plate twice using 1×PBST wash solution, 200 μL of 1.5% BSA (Sigma, Catalog No. B2064) was added to each well, and incubated at 37° C. for 2 h; after washing the plate 3 times using 1×PBST wash solution, the analytes were added (100 μL/well, 3 replicate wells; for the control group, 0.25 μg/mL of Fc-tagged CD36 protein (R&D Systems, Catalog No. 1955-CD-050); and for the polypeptide-treated groups, a mixture containing Fc-tagged CD36 protein and polypeptide at final concentrations of 0.25 μg/mL and 100 μM, respectively), and incubated at 37° C. for 3 h. After washing the plate 5 times using 1×PBST wash solution, a 1:500 dilution solution of FITC-labeled anti-Fc-tagged antibody (Beyotime, Catalog No. A0556) was added, and incubated for 1 h at 37° C.; after washing the plate 5 times using 1×PBST wash solution, a multifunctional ELISA instrument (TECAN, model: Infinite 200 Pro) was used to detect the intensity of FITC fluorescence signal in each sample well. The ability of the polypeptides to block CD36 binding to TSP-1 protein (Table 2-1) was assessed by calculating the ratio of the fluorescence signal from the polypeptide-treated groups to that of the control group, allowing for the determination of the blocking rate of the polypeptides in inhibiting CD36 binding to TSP-1 protein, i.e., (fluorescence signal of the control group-fluorescence signal of the polypeptide-treated group)/fluorescence signal of the control group×100%. Based on the blocking rate results obtained at the single concentration and on the polypeptide molecule properties, the preferred polypeptide molecules were assayed for concentration dependence (at 0 μM, 0.5 μM, 1 μM, 5 μM, 10 μM, and 100 μM), and IC50 values of the polypeptides for blocking CD36 binding to TSP-1 protein were determined to further assess the abilities of the preferred polypeptide molecules to block the binding of CD36 to TSP-1 (Table 2-2).

[2] = test system: active TGF-β; assay: Active TGF-β level in lung tissue, bleomycin (BLM) mouse lung fibrosis model; assay type: in vivo; settings: single intratracheal dose 3 mg/kg on Day 7, lung 24 h later; BLM model group = 100.00
From the text: This Example was to evaluate the inhibitory effect of polypeptides on active TGF-β level during the progression of fibrotic disease. In this Example, a mouse lung fibrosis model induced by bleomycin (BLM) was used. The BLM animal model offers advantages, including a close mimicry of the pathological features of the primary disease, ease of use, and good reproducibility. It is the most representative model for studying the mechanisms of fibrosis and is recommended for evaluating drug efficacy.
In this Example, 6 to 8-week-old male C57/6J mice weighing 18-20 g were used as subjects for the study. The experimental animals were randomized into groups, 8 animals in each group, and the expressions of pro-fibrotic factors were detected at the endpoint of the experiment (Day 8) in this model. In this example, an aerosol intratracheal metered dosing applicator (Yuyan, model YAN30012) was utilized for intratracheal administration during the modeling and drug delivery processes. The dosing was performed as follows (An Official American Thoracic Society Workshop Report: Use of Animal Models for the Preclinical Assessment of Potential Therapies for Pulmonary Fibrosis, Am J Respir Cell Mol Biol Vol 56, Iss 5, pp 667-679, May 2017): The experimental animals were anesthetized with aerosolized isoflurane (RWD, lot no. 22041701) using a small animal anesthesia machine (RWD, model R500IE). Animals in the appropriate anesthetic state were positioned supine with heads facing up and bodies tilted on an operating platform (tilted at approximately) 60°, secured by their incisors. The practitioner gently lifted the tongue with tissue forceps in the right hand, pushing it outward and upward to open the animal's lower jaw. Holding the laryngoscope (Yuyan, model SR310-RW) in the left hand, the practitioner slid its anterior leaf-shaped blade along the midline of the tongue into the oral cavity until reaching the glottis, gently pressing the body and root of the tongue upward. The needle of the drug applicator was then inserted through the mouth into the glottis alongside the laryngoscope, and 50 μL of liquid was quickly injected. On the day of modeling (Day 1), the experimental animals were randomly assigned to groups and administered a 0.7 USP/kg dose of bleomycin solution (HanHui Pharmaceutical, Batch No. 20080511) via the tracheal route to induce the model. On Day 7, each peptide-treated group received a single intratracheal dose of 50 μL peptide drug (at a dosage of 3 mg/kg), while the model group was given an equal volume of solvent (saline, Kelong, Batch No. L221062501) as a control. Twenty-four hours after drug administration, the animals were dissected to collect lung tissue, which was ground in liquid nitrogen to extract total protein from the lung tissue. The active TGF-β content in the lung tissue of mice from each group was measured using the TGF-β ELISA kit (BOSTER, catalog number EK0515). The ratio of active TGF-β content between the peptide-treated group and the model group was calculated to evaluate the effect of the peptide on active TGF-β level.

[3] = test system: P-Smad2/3; assay: P-Smad2/3 content in lung tissue, BLM mouse fibrosis model; assay type: in vivo; settings: single intratracheal dose 3 mg/kg on Day 7, lung 24 h later; BLM model group = 100.00
From the text: This example aimed to evaluate the inhibitory effect of polypeptides on the TGF-β downstream signaling pathway during fibrosis progression. TGF-β intracellular signaling relies on the phosphorylation events of Smad family proteins. The increase in Smad2/3 phosphorylation levels is an important indicator that signal transduction has occurred in the TGF-β signaling pathway.
In this example, 6- to 8-week-old male C57/6J mice weighing 18-20 g were used as subjects for the study. The experimental animals were randomized into groups, eight animals in each group. In this example, intratracheal administration was performed using an aerosol intratracheal metered dosing applicator during both the modeling and drug delivery processes, as described in Example 4. On the day of modeling (Day 1), the experimental animals were randomly assigned to groups and administered a 0.7 USP/kg dose of bleomycin solution (HanHui Pharmaceutical, Batch No. 20080511) via the tracheal route to induce the model. On Day 7, each peptide-treated group received a single intratracheal dose of peptide drug at a dosage of 3 mg/kg, while the BLM model group was given an equal volume of solvent (saline) as a control. Twenty-four hours after drug administration, the animals were dissected, and the lung tissues were collected and frozen in liquid nitrogen for future use. Total protein from the lung tissue was extracted after grinding the tissue in liquid nitrogen, and the total P-Smad2/3 content in the tissue was measured by using P-Smad2/3 ELISA kit (CST, Catalog No. 12001C). The ratio of the P-Smad2/3 content between the peptide-treated group and the model group was calculated to evaluate the effect of the peptide on TGFβ signaling.

T1 sequence (P07996 19-1170): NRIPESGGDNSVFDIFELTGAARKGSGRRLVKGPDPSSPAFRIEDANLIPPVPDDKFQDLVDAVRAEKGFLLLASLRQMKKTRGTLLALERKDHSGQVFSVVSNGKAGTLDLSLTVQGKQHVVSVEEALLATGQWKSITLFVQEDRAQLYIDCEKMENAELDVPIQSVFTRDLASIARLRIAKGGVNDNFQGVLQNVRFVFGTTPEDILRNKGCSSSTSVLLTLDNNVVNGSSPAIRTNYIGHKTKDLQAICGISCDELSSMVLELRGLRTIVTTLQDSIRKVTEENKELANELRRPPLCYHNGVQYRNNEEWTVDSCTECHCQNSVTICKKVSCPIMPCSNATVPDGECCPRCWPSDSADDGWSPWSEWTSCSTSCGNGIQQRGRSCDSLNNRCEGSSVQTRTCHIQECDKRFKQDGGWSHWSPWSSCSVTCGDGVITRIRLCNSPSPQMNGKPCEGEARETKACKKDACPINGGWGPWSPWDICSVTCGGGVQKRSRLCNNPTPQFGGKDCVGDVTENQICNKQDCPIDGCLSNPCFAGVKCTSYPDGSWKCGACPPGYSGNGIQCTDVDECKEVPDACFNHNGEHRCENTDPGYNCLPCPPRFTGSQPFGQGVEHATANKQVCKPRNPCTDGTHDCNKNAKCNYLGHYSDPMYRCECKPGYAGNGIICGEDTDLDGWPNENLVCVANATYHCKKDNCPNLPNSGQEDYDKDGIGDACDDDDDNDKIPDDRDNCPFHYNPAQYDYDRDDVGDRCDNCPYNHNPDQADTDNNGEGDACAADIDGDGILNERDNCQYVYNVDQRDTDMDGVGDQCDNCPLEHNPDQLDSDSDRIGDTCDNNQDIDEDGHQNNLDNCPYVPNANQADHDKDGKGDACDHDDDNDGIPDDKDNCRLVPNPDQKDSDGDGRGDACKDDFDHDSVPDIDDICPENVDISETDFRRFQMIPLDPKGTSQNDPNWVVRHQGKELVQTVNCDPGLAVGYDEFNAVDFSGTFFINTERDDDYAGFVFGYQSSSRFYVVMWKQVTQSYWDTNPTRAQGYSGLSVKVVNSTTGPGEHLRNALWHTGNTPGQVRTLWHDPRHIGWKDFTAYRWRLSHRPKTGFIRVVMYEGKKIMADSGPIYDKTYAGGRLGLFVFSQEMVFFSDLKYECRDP

Row | Substance | Blocking rate (Mean, %) [1] [%] | inhibition at 100 µM [1] [%] | active TGF-β content in lung tissue, ratio to model group, Mean(%) [2] [%] | P-Smad2/3 content in lung tissue, ratio to model group, Mean(%) [3] [%]
1 | Ac-Gln-Asp-Ala-Glu-Asp-Asn-Thr-Ala-NH2 (Ac-QDAEDNTA-NH2) [SEQ ID NO: 16] | 24.87 | – | – | –
2 | Ac-Gln-Asp-Ala-Glu-Asp-NH2 (Ac-QDAED-NH2) [SEQ ID NO: 02] | 16.39 | – | – | –
3 | Ac-Gln-Asp-Pro-Glu-Asp-NH2 (Ac-QDPED-NH2) [SEQ ID NO: 01] | 17.84 | – | – | –
4 | Ac-QDAEDNTAS-NH2 [SEQ ID NO: 23, Ac-Gln-Asp-Ala-Glu-Asp-Asn-Thr-Ala-Ser-NH2] | – | 22.8 | – | –
5 | Ac-Ser-Gln-Asp-Ala-Glu-Asp-Asn-NH2 (Ac-SQDAEDN-NH2) [SEQ ID NO: 07] | 16.42 | – | 71.66 | 80.71
6 | Ac-Ser-Gln-Asp-Ala-Glu-Asp-Asn-Thr-Val-NH2 (Ac-SQDAEDNTV-NH2) [SEQ ID NO: 18] | 18.79 | – | – | –
7 | Ac-Ser-Gln-Asp-Ala-Glu-Asp-Asn-Thr-Val-Ser-Phe-Leu-Gln-NH2 (Ac-SQDAEDNTVSFLQ-NH2) [SEQ ID NO: 37] | 22.41 | – | – | –
8 | Ac-Ser-Gln-Asp-Ala-Glu-Asp-Asn-Thr-Val-Ser-Phe-NH2 (Ac-SQDAEDNTVSF-NH2) [SEQ ID NO: 28] | 21.71 | – | – | –
9 | Ac-TQDAEDNT-NH2 [SEQ ID NO: 15, Ac-Thr-Gln-Asp-Ala-Glu-Asp-Asn-Thr-NH2] | – | 30.6 | – | –
10 | Ac-TQDAEDNTQD-NH2 [SEQ ID NO: 49, Ac-Thr-Gln-Asp-Ala-Glu-Asp-Asn-Thr-Gln-Asp-NH2] | – | 30.2 | 82.64 | 91.98
11 | Ac-TQDPAEDN-NH2 [SEQ ID NO: 48, Ac-Thr-Gln-Asp-Pro-Ala-Glu-Asp-Asn-NH2] | – | 29.7 | 82.97 | 80.57
12 | Ac-Thr-Asn-Asp-Ala-Glu-Asp-Asn-NH2 (Ac-TNDAEDN-NH2) [SEQ ID NO: 08] | 16.70 | – | 80.31 | 83.02
13 | Ac-Thr-Asn-Asp-Ala-Glu-Asp-Asn-Thr-Val-NH2 (Ac-TNDAEDNTV-NH2) [SEQ ID NO: 19] | 16.86 | – | – | –
14 | Ac-Thr-Gln-Asp-Ala-Glu-Asp-Asn-Thr-Ala-Ser-His-Leu-NH2 (Ac-TQDAEDNTASHL-NH2) [SEQ ID NO: 35] | 21.58 | – | – | –
15 | Ac-Thr-Gln-Asp-Ala-Glu-Asp-Asn-Thr-Ala-Ser-Phe-NH2 (Ac-TQDAEDNTASF-NH2) [SEQ ID NO: 31] | 18.44 | – | 83.22 | 90.02
16 | Ac-Thr-Gln-Asp-Ala-Glu-Asp-Asn-Thr-Ala-Ser-Trp-NH2 (Ac-TQDAEDNTASW-NH2) [SEQ ID NO: 34] | 20.44 | – | – | –
17 | Ac-Thr-Gln-Asp-Ala-Glu-Asp-Asn-Thr-Ala-Ser-Tyr-NH2 (Ac-TQDAEDNTASY-NH2) [SEQ ID NO: 32] | 21.45 | – | – | –
18 | Ac-Thr-Gln-Asp-Ala-Glu-Asp-Asn-Thr-Val-NH2 (Ac-TQDAEDNTV-NH2) [SEQ ID NO: 17] | 29.16 | – | 71.36 | 74.12
19 | Ac-Thr-Gln-Asp-Ala-Glu-Asp-Asn-Thr-Val-Ser-Phe-NH2 (Ac-TQDAEDNTVSF-NH2) [SEQ ID NO: 27] | 25.53 | – | 89.89 | 88.69
20 | Ac-Thr-Gln-Asp-Ala-Glu-Asp-Pro-NH2 (Ac-TQDAEDP-NH2) [SEQ ID NO: 13] | 16.56 | – | – | –
21 | Ac-Thr-Gln-Asp-Pro-Glu-Asp-Asn-Thr-Val-NH2 (Ac-TQDPEDNTV-NH2) [SEQ ID NO: 20] | 26.03 | – | – | –
22 | Ac-Thr-Gln-Asp-Pro-Glu-Asp-Asn-Thr-Val-Ser-Phe-Leu-Gln-NH2 (Ac-TQDPEDNTVSFLQ-NH2) [SEQ ID NO: 39] | 22.29 | – | – | –
23 | Ac-Thr-Gln-Asp-Pro-Glu-Asp-Asn-Thr-Val-Ser-Phe-NH2 (Ac-TQDPEDNTVSF-NH2) [SEQ ID NO: 30] | 22.45 | – | – | –
24 | Ac-Thr-Gln-Asp-Pro-Glu-Asp-NH2 (Ac-TQDPED-NH2) [SEQ ID NO: 03] | 16.02 | – | – | –
25 | Ac-Thr-Gln-Asp-Ser-Glu-Asp-Asn-NH2 (Ac-TQDSEDN-NH2) [SEQ ID NO: 11] | 15.19 | – | – | –
26 | Ac-Thr-Gln-Asp-Ser-Glu-Asp-Asn-Thr-Val-NH2 (Ac-TQDSEDNTV-NH2) [SEQ ID NO: 21] | 15.63 | – | – | –
27 | Ac-Thr-Glu-Asp-Ala-Glu-Asp-Asn-Thr-Val-Ser-Phe-NH2 (Ac-TEDAEDNTVSF-NH2) [SEQ ID NO: 29] | 25.05 | – | – | –
28 | Ac-Thr-Ser-Asp-Ala-Glu-Asp-Asn-NH2 (Ac-TSDAEDN-NH2) [SEQ ID NO: 10] | 14.54 | – | – | –
29 | Ac-Thr-Ser-Asp-Ala-Glu-Asp-Asn-Thr-Val-Ser-Phe-Leu-Gln-NH2 (Ac-TSDAEDNTVSFLQ-NH2) [SEQ ID NO: 38] | 20.22 | – | – | –
